The target of experiment [1] is T1, wild type (WT) GPIIb/IIIa ectodomain (heterodimer of SEQ ID NOs: 1 and 3) (human, UniProt P08514 32-993; P05106 27-716).
T1 construct: Recombinant purified ectodomain; also called GP2b3a; integrin αIIbβ3
Nature of the experiment: apparent monovalent affinity for GP2b3a (SEQ ID: 1 and 3); BLI or SPR, the method of each row is not given.

The target of experiment [2] is T2, integrin alpha v beta III ectodomain (SEQ ID NOs: 245 and 3) (human, UniProt P06756 31-992; P05106 27-716).
T2 construct: Purified recombinant ectodomain; also called alpha v beta 3
In words: BLI, yeast purified Fab on sensor-associated AvB3 (sheet head: SEQ ID NOs: 199, 3; legend: SEQ ID NO 245 and 3).

Experiment [3] addresses T3, GPIIb/IIIa on gel-purified human platelets (activated or resting) (human, UniProt P08514 32-1039; P05106 27-788).
T3 construct: whole, on cells; Native receptor on platelets; also called integrin αIIbβ3 on platelets; GPIIb/IIIa on platelets
Nature of the experiment: flow cytometry, Fab on gel-purified human platelets; steeper curve with filled circles, which the legend box labels resting platelets. On the technique in general: In flow cytometry, cells or beads pass a laser one at a time.

Experiment [4] addresses T2, integrin alpha v beta III ectodomain …. In words: BLI, monovalent format, yeast purified Fab; drawn table of apparent integrin binding specificity (legend of FIGS. 20A-D: alpha V beta III is SEQ ID NO 245 and 3). In general terms: Biolayer interferometry detects binding as a change in optical thickness at a sensor tip.
Experiment [5] has the same target. In words: BLI, yeast purified Fab on sensor-associated AvB3 (sheet head: SEQ ID NOs: 199, 3; legend: SEQ ID NO 245 and 3); Fab concentration not given.
Experiment [6] shares this target. Nature of the experiment: BLI, monovalent format, yeast purified Fab; drawn table of apparent integrin binding specificity.
The target is the same in experiment [7]. In words: BLI, yeast purified Fab on sensor-associated AvB3 (sheet head: SEQ ID NOs: 199, 3; legend: SEQ ID NO 245 and 3). This is another data set of the same source.
Experiment [8] has the same target. In words: BLI, yeast purified Fab on sensor-associated AvB3 (sheet head: SEQ ID NOs: 199, 3; legend: SEQ ID NO 245 and 3); Fab concentration not given. This is another data set of the same source.

We go through twelve molecules from patent publication US20220089745A1 (Biogen, published 2022).

The EC50 (read off the curve) is the concentration giving half of the maximal effect. Lower therefore signals an effect from little substance.

Positions count from the first letter of the chain named.

B1: BIIB-4-156 (Fab, V domains shown)
VH: QVQLVQSGAEVKKPGSSVKVSCKASGGTFSSYAISWVRQAPGQGLEWMGGIIPIFGTANYAQKFQGRVTITADESTSTAYMELSSLRSEDTAVYYCARDTGYYGASLYFDYWGQGTLVTVSS
VL: EIVLTQSPATLSLSPGERATLSCRASQSVSSYLAWYQQKPGQAPRLLIYDASNRATGIPARFSGSGSGTDFTLTISSLEPEDFAVYYCQQRSALPRTFGGGTKVEIK
notes: Tested as Fab made from yeast-expressed, protein A-purified antibody; Only VH and VL are tied to the clone
Turning to B1, in experiment [1], the Kd is 11 nM. For the same molecule, the binding result in experiment [2] is recorded as “binds”. Further, the “EC50 (read off the curve)” value in experiment [3] is roughly 20 nM.

B2: BIIB-4-317 (Fab, V domains shown)
VH: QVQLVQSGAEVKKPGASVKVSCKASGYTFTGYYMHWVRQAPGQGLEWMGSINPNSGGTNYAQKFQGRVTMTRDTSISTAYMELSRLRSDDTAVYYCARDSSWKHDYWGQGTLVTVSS
VL: B1 VL with Y36F, R91Y, A93F, L94Y, R96L
notes: as for B1
As to B2, in experiment [4], the binding result is given as “binds”.

B3: BIIB-4-209 (Fab, V domains shown)
VH: QVQLVQSGAEVKKPGASVKVSCKASGYTFTSYGISWVRQAPGQGLEWMGWISAYNGNTNYAQKLQGRVTMTTDTSTSTAYMELRSLRSDDTAVYYCARGRPYDHYFDYWGQGTLVTVSS
VL: B1 VL with R91A, S92Y, A93N, L94Y, R96F
notes: as for B1
Turning to B3, the Kd in experiment [1] came to 98 nM. Further, the binding result in experiment [4] is listed as “binds”.

B4: BIIB-4-204 (Fab, V domains shown)
VH: QVQLVQSGAEVKKPGASVKVSCKASGYTFTSYSMHWVRQAPGQGLEWMGIINPSGGSTSYAQKFQGRVTMTRDTSTSTVYMELSSLRSEDTAVYYCARSYDIGYFDLWGRGTLVTVSS
VL: B1 VL with N53K, R91D, A93F, R96F
notes: as for B1
Consider B4, for which the Kd in experiment [1] stood at 170 nM. Moreover, in experiment [4], the binding result is recorded as “binds”.

B5: BIIB-4-174 (Fab, V domains shown)
VH: QVQLVQSGAEVKKPGSSVKVSCKASGGTFSSYAISWVRQAPGQGLEWMGGIIPIFGTANYAQKFQGRVTITADESTSTAYMELSSLRSEDTAVYYCARGPPSAYGDYVWDIWGQGTMVTVSS
VL: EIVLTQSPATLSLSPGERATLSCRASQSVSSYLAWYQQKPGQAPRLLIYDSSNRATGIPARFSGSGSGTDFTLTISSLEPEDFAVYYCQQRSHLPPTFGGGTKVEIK
notes: as for B1
For B5, the Kd in experiment [1] amounted to 11 nM. Further, the binding result in experiment [5] is listed as “no binding”.

B6: BIIB-4-311 (Fab, V domains shown)
VH: QVQLVQSGAEVKKPGASVKVSCKASGYTFTSYYMHWVRQAPGQGLEWMGVINPSGGSTSYAQKFQGRVTMTRDTSTSTVYMELSSLRSEDTAVYYCARLMSGSSGSWGQGTLVTVSS
VL: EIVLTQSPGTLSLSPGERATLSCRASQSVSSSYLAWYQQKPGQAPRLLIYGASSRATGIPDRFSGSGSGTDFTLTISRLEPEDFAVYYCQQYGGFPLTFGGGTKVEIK
notes: as for B1
With B6, in experiment [6], the binding result is listed as “no binding”. Besides, the Kd in experiment [1] came to 64 nM.

B7: BIIB-4-309 (Fab, V domains shown)
VH: QVQLVQSGAEVKKPGASVKVSCKASGYTFTSYGISWVRQAPGQGLEWMGWISAYNGNTNYAQKLQGRVTMTTDTSTSTAYMELRSLRSDDTAVYYCARDGLGSSPWSAFDIWGQGTMVTVSS
VL: not shown
notes: Tested as Fab made from yeast-expressed, protein A-purified antibody; Only VH and VL are tied to the clone; also called Fab BIIB_4_309
In the case of B7, the binding result in experiment [6] was “no binding”. Moreover, in experiment [1], the Kd came to 25 nM.

B8: BIIB-4-319 (Fab, V domains shown)
VH: QVQLQESGPGLVKPSETLSLTCAVSGYSISSGYYWAWIRQPPGKGLEWIGSIYHSGSTYYNPSLKSRVTISVDTSKNQFSLKLSSVTAADTAVYYCAREHSSSGQWNVWGQGTMVTVSS
VL: EIVLTQSPATLSLSPGERATLSCRASQSVSSYLAWYQQKPGQAPRLLIYDASNRATGIPARFSGSGSGTDFTLTISSLEPEDFAVYYCQQRSFYFTFGGGTKVEIK
notes: Tested as Fab made from yeast-expressed, protein A-purified antibody; Only VH and VL are tied to the clone; also called BBB-4-319
In the case of B8, the binding result in experiment [7] is reported as “binds”.

B9: BIIB-4-147 (Fab, V domains shown)
VH: QVQLVQSGAEVKKPGASVKVSCKASGYTFTSYGISWVRQAPGQGLEWMGWISAYNGNTNYAQKLQGRVTMTTDTSTSTAYMELRSLRSDDTAVYYCARDLEYYDSSGYAYGYFDLWGRGTLVTVSS
VL: not shown
notes: as for B1
In the case of B9, the Kd in experiment [1] turned out to be 5 nM. Moreover, in experiment [8], the binding result is recorded as “no binding”.

B10: BIIB-4-224 (Fab, V domains shown)
VH: QLQLQESGPGLVKPSETLSLTCTVSGGSISSSSYYWGWIRQPPGKGLEWIGSIYYSGSTYYNPSLKSRVTISVDTSKNQFSLKLSSVTAADTAVYYCARDFYSSVYGMDVWGQGTTVTVSS
VL: DIQLTQSPSSLSASVGDRVTITCRASQSISSFLNWYQQKPGKAPKLLIYAASSLQSGVPSRFSGSGSGTDFTLTISSLQPEDFATYYCQQSYVHPLTFGGGTKVEIK
notes: as for B1
Take B10: the binding result in experiment [6] was “no binding”. Moreover, in experiment [1], the Kd was 200 nM.

B11: BIIB-4-318 (Fab, V domains shown)
VH: QVQLQESGPGLVKPSETLSLTCAVSGYSISSGYYWGWIRQPPGKGLEWIGSIYHSGSTNYNPSLKSRVTISVDTSKNQFSLKLSSVTAADTAVYYCARSPRWRSTYANWFNPWGQGTLVTVSS
VL: B10 VL with L11V, S28G, F32W, N34A, A50G, S91A, Y92A, V93P, H94F
notes: as for B1
For the molecule B11, in experiment [6], the binding result was “no binding”. Besides, the Kd in experiment [1] turned out to be 3 nM.

B12: BIIB-4-175 (Fab, V domains shown)
VH: EVQLVESGGGLVQPGGSLRLSCAASGFTFSDHHMDWVRQAPGKGLEWVGRTRNKANSYTTEYAASVKGRFTISRDDSKNSLYLQMNSLKTEDTAVYYCARGPPYYADLGMGVWGQGTTVTVSS
VL: EIVMTQSPATLSVSPGERATLSCRASQSVSSNLAWYQQKPGQAPRLLIYGASTRATGIPARFSGSGSGTEFTLTISSLQSEDFAVYYCQQFNLYPYTFGGGTKVEIK
notes: as for B1
As to B12, the binding result in experiment [6] was “no binding”. Moreover, in experiment [1], the Kd came to 15 nM.
